Laboratory results from paper PMC4122979, “The N-terminal portion of autoinhibitory element modulates human endothelial nitric-oxide synthase activity through coordinated controls of phosphorylation at Thr^495 and Ser^1177” (Bioscience Reports, 2014).

Molecular target: CaM (calmodulin) (UniProt P0DP23)
Assay: CaM mobility shift on non-denaturing PAGE
Details: reference: unmodified T495 peptide; sites T495

For “eNOS (endothelial nitric-oxide synthase; heNOS) CaM-binding domain (CBD), 491-510 (from UniProt P29474) pT495 peptide”, the “binding against the reference” value was “weaker”.
